# Assay results reported in patent US20120316071A1 (published 2012).
# T1: rHuman Erythropoietin R/Fc Chimera, CF (R&D Systems Cat#963-ER) (human, UniProt P19235 25-250)
# T1 construct: Bought recombinant protein; also called EPO R/Fc; Epo R; Fc part of the bought chimera not given
# T1 sequence (looked up): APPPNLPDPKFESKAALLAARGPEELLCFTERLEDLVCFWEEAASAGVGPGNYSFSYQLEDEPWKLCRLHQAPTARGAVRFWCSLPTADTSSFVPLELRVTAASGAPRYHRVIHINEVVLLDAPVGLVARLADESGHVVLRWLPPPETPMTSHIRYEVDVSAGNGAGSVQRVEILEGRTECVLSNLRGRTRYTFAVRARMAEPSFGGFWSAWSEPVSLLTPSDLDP
# T2: rHuman Erythropoietin R/Fc Chimera, CF (R&D Systems Cat#963-ER) (human, UniProt P19235 25-250)
# T2 construct: Bought Fc chimera; also called EPO R/Fc; Epo R; Fc part of the bought chimera not given
# T2 sequence (looked up): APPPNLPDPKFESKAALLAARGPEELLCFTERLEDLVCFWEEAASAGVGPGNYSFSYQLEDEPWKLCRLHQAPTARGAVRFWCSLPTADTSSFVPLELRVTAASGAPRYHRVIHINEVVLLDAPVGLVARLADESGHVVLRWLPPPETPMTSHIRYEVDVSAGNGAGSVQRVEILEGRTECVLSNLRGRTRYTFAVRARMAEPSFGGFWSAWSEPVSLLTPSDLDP
# T3: rHuman Erythropoietin R/Fc Chimera, CF (R&D Systems Cat#963-ER) (human, UniProt P19235 25-250)
# T3 construct: Bought recombinant protein; also called EPO R/Fc; Epo R; Fc part of the bought chimera not given
# T3 sequence (looked up): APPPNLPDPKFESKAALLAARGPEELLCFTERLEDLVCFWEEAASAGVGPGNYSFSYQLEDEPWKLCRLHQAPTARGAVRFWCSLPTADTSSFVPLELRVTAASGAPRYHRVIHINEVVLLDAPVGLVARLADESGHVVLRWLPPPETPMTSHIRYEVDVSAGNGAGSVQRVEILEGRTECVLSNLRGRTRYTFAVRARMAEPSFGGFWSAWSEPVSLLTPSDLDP
# Key:
# [1] = target: T4, rHuman ErbB2/Fc Chimera, CF (R&D Systems Cat#1129-ER) (human, UniProt P04626 23-652); experiment: Multispot ECL (MSD) assay, antigen spotted on plate, Fab at 0.312 µM; blank spot 1977
# T4 construct: Bought recombinant protein; also called human epidermal growth factor 2 receptor (ErbB2); Fc part of the bought chimera not given
# [2] = target: T5, rHuman EGF R/Fc Chimera, CF (R&D Systems Cat#344-ER) (human, UniProt P00533 25-645); experiment: as above
# T5 construct: Bought recombinant protein; also called epidermal growth factor receptor (EGF R); Fc part of the bought chimera not given
# [3] = target: T6, rHuman CD44/Fc Chimera, CF (R&D Systems Cat#3660-CD) (human, UniProt P16070 21-220); experiment: as above
# T6 construct: Bought recombinant protein; Fc part of the bought chimera not given
# [4] = target: T1, rHuman Erythropoietin R/Fc Chimera, CF …; experiment: as above
# [5] = target: T7, rHuman HGF R/c-MET/Fc Chimera, CF (R&D Systems Cat#358-MT/CF) (human, UniProt P08581 25-932); experiment: as above
# T7 construct: Bought recombinant protein; also called HGF R/Fc; hepatocyte growth factor receptor (HGF R/c-Met); Fc part of the bought chimera not given
# T7 sequence (P08581 25-932, change not shown): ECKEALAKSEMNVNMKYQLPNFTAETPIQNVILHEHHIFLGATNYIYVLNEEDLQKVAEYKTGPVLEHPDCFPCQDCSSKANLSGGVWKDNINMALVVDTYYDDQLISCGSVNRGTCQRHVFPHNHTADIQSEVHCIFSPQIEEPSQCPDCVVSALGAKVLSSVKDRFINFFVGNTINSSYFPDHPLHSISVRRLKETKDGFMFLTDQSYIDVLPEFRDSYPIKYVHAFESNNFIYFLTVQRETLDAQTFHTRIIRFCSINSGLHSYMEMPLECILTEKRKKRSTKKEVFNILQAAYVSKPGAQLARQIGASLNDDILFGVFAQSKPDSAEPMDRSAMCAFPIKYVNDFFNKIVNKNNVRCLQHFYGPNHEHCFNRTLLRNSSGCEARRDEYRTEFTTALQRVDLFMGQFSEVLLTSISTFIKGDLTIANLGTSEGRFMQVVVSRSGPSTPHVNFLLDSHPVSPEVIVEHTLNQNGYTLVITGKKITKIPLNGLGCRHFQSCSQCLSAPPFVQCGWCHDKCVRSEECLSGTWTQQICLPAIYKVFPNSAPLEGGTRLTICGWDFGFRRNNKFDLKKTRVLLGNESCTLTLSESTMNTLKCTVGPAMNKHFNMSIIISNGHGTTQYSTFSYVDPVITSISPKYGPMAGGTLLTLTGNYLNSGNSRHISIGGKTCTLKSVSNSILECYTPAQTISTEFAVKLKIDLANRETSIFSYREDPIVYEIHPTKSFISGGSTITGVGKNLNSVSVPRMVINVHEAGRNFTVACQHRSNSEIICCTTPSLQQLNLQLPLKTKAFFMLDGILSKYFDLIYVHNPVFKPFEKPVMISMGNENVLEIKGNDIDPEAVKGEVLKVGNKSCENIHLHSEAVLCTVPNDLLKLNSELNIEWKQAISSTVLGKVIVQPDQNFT
# [6] = target: T8, rHuman IGF-1 sR, (IGF-1 sR), CF (R&D Systems Cat#391-GR) (human, UniProt P08069 31-932); experiment: as above
# T8 construct: Bought recombinant soluble receptor; also called insulin-like growth factor-1 soluble receptor
# [7] = target: T9, rHuman P-Cadherin/Fc Chimera, CF (R&D Systems Cat#861-PC) (human, UniProt P22223 108-654); experiment: as above
# T9 construct: Bought recombinant protein; Fc part of the bought chimera not given
# [8] = target: T10, rHuman Notch-1/Fc Chimera, CF (R&D Systems Cat#3647-TK) (human, UniProt P46531 19-526); experiment: as above
# T10 construct: Bought recombinant protein; Fc part of the bought chimera not given
# [9] = target: T11, Recombinant Human DLL4 (R&D Systems Cat#1506-D4/CF) (human, UniProt Q9NR61 27-524); experiment: as above
# T11 construct: Bought recombinant protein; also called delta-like protein 4; rHuman DLL4
# [10] = target: T12, Recombinant Human DLL4 (R&D Systems Cat#1506-D4/CF) (human, UniProt Q9NR61 27-524); experiment: MSD Multispot ECL, antigen spotted on plate, Fab at 480 nM; blank spot 362
# T12 construct: Bought recombinant protein; also called rHuman DLL4; delta-like protein 4
# [11] = target: T2, rHuman Erythropoietin R/Fc Chimera, CF …; experiment: as above
# [12] = target: T13, rHuman Notch-1/Fc Chimera, CF (R&D Systems Cat#3647-TK) (human, UniProt P46531 19-526); experiment: as above
# T13 construct: Bought Fc chimera; Fc part of the bought chimera not given
# [13] = target: T14, rHuman P-Cadherin/Fc Chimera, CF (R&D Systems Cat#861-PC) (human, UniProt P22223 108-654); experiment: as above
# T14 construct: Bought Fc chimera; Fc part of the bought chimera not given
# [14] = target: T15, rHuman CD44/Fc Chimera, CF (R&D Systems Cat#3660-CD) (human, UniProt P16070 21-220); experiment: as above
# T15 construct: Bought Fc chimera; Fc part of the bought chimera not given
# [15] = target: T2, rHuman Erythropoietin R/Fc Chimera, CF …; experiment: MSD Multispot ECL, antigen spotted on plate, Fab at 120 nM; blank spot 363
# [16] = target: T16, Recombinant Human DLL4 (R&D Systems Cat#1506-D4/CF) (human, UniProt Q9NR61 27-524); experiment: Multispot ECL (MSD), antigen spotted on plate, Fab 250 nM; blank spot 590
# T16 construct: Bought recombinant protein; also called rHuman DLL4; delta-like protein 4
# [17] = target: T3, rHuman Erythropoietin R/Fc Chimera, CF …; experiment: as above
# [18] = target: T17, rHuman IGF-1 sR, CF (R&D Systems Cat#391-GR) (human, UniProt P08069 31-932); experiment: as above
# T17 construct: Bought recombinant soluble receptor; also called insulin-like growth factor-1 soluble receptor
# [19] = target: T18, rHuman Notch-1/Fc Chimera, CF (R&D Systems Cat#3647-TK) (human, UniProt P46531 19-526); experiment: as above
# T18 construct: Bought recombinant protein; Fc part of the bought chimera not given
binder,measurement,setting,value
"Fab VH1-46_IGHD7-27*01_IGHJ2*01 & L6_IGKJ1*01 (Fab, V domains shown, Germline Fab made in E. coli; VH was cloned in Plasmid A (CH1 constant region, His6 and Flag tags) and the kappa VL in Plasmid C (kappa CL); Only the variable domains are tied to this Fab by name) VH: QVQLVQSGAEVKKPGASVKVSCKASGYTFTSYYMHWVRQAPGQGLEWMGIINPSGGSTSYAQKFQGRVTMTRDTSTSTVYMELSSLRSEDTAVYYCARANWGYWYFDLWGRGTLVTVSS VL: not shown",ECL signal,[1],3660
same,ECL signal,[2],4330
same,ECL signal,[3],4170
same,ECL signal,[4],5020
same,ECL signal,[5],4690
same,ECL signal,[6],3510
same,ECL signal,[7],7100
same,ECL signal,[8],4460
same,ECL signal,[9],5480
"Fab VH6-1_IGHD3-3*01_IGHJ4*01 & V4-3_IGLJ4*01 (Fab, V domains shown, Tested as a purified germline Fab made in E. coli; The VH was cloned into plasmid A (CH1 constant region, His6 and Flag tags) and the lambda VL into plasmid E (lambda CL)) VH: QVQLQQSGPGLVKPSQTLSLTCAISGDSVSSNSAAWNWIRQSPSRGLEWLGRTYYRSKWYNDYAVSVKSRITINPDTSKNQFSLQLNSVTPEDTAVYYCAREYYDFWSGYYTDYFDYWGQGTLVTVSS VL: QPVLTQPTSLSASPGASARLTCTLRSGINLGSYRIFWYQQKPESPPRYLLSYYSDSSKHQGSGVPSRFSGSKDASSNAGILVISGLQSEDEADYYCMIWHSSASFVFGGGTQLIIL",ECL signal,[10],1530
same,ECL signal,[11],621
same,ECL signal,[12],545
same,ECL signal,[13],596
same,ECL signal,[14],541
same,ECL signal,[15],431
"Fab VH1-46_IGHD6-13*01_IGHJ4*01 & B3_IGKJ1*01 (Fab, V domains shown, Germline Fab made in E. coli; VH was cloned into Plasmid A (CH1, His6 and Flag tags) and the kappa VL into Plasmid C (kappa CL)) VH: QVQLVQSGAEVKKPGASVKVSCKASGYTFTSYYMHWVRQAPGQGLEWMGIINPSGGSTSYAQKFQGRVTMTRDTSTSTVYMELSSLRSEDTAVYYCAREGYSSSWYDYFDYWGQGTLVTVSS VL: not shown",ECL signal,[16],1560
same,ECL signal,[17],8540
same,ECL signal,[18],993
same,ECL signal,[19],1240
